Reference: the Human Domainome abundance scans (Beltran et al. 2025)
± gives the uncertainty stated by the source.

B1: PDZ and LIM domain protein 2, residues 284 to 339; numbered along this chain, Q96JY6 (parent)
chain: HTCEKCSTSIANQAVRIQEGRYRHPGCYTCADCGLNLKMRGHFWVGDELYCEKHAR

Variants of: B1
Assay: abundance fitness (aPCA) (normalised: wild type 0, dead -1); higher = more abundant; growth selection in yeast, the domain comes from the species named
Details: Homo sapiens

Variant | abundance fitness
HTCEKCSTSIANQAVRIQEGRYRHPGCYTCADCGLNLKMRGHFWVGDELYCEQHAR [K53Q] | 0.028 ± 0.075
HTCEKCSTSIANQAVRIQEGRYRHPGCYTCADCGLNLKMRGHFWVGDELYCETHAR [K53T] | 0.037 ± 0.12
HTCEKCSTSIANQAVRIQEGRYRHPGCYTCADCGLNLKMRGHFWVGDELYCEDHAR [K53D] | 0.078 ± 0.14
HTCEKCSTSIANQAVRIQEGRYRHPGCYTCADCGLNLKMRGHFWVGDELYCEHHAR [K53H] | 0.377 ± 0.14
HTCEKCSTSIANQAVRIQEGRYRHPGCYTCADCGLNLKMRGHFWVGDELYCELHAR [K53L] | -0.135 ± 0.079
HTCEKCSTSIANQAVRIQEGRYRHPGCYTCADCGLNLKMRGHFWVGDELYCEFHAR [K53F] | -0.089 ± 0.19
HTCEKCSTSIANQAVRIQEGRYRHPGCYTCADCGLNLKMRGHFWVGDELYCEEHAR [K53E] | 0.235 ± 0.094
HTCEKCSTSIANQAVRIQEGRYRHPGCYTCADCGLNLKMRGHFWVGDELYCECHAR [K53C] | -0.377 ± 0.16
HTCEKCSTSIANQAVRIQEGRYRHPGCYTCADCGLNLKMRGHFWVGDELYCEWHAR [K53W] | 0.164 ± 0.11
HTCEKCSTSIANQAVRIQEGRYRHPGCYTCADCGLNLKMRGHFWVGDYLYCEKHAR [E48Y] | -0.235 ± 0.075
HTCEKCSTSIANQAVRIQEGRYRHPGCYTCADCGLNLKMRGHFWVGDVLYCEKHAR [E48V] | -0.011 ± 0.095
HTCEKCSTSIANQAVRIQEGRYRHPGCYTCADCGLNLKMRGHFWVGDRLYCEKHAR [E48R] | -0.079 ± 0.08
HTCEKCSTSIANQAVRIQEGRYRHPGCYTCADCGLNLKMRGHFWVGDQLYCEKHAR [E48Q] | -0.292 ± 0.14
HTCEKCSTSIANQAVRIQEGRYRHPGCYTCADCGLNLKMRGHFWVGDPLYCEKHAR [E48P] | -0.788 ± 0.1
HTCEKCSTSIANQAVRIQEGRYRHPGCYTCADCGLNLKMRGHFWVGDNLYCEKHAR [E48N] | 0.203 ± 0.14
HTCEKCSTSIANQAVRIQEGRYRHPGCYTCADCGLNLKMRGHFWVGDSLYCEKHAR [E48S] | -0.074 ± 0.11
HTCEKCSTSIANQAVRIQEGRYRHPGCYTCADCGLNLKMRGHFWVGDTLYCEKHAR [E48T] | -0.286 ± 0.12
HTCEKCSTSIANQAVRIQEGRYRHPGCYTCADCGLNLKMRGHFWVGDELACEKHAR [Y50A] | -0.188 ± 0.086
HTCEKCSTSIANQAVRIQEGRYRHPGCYTCADCGLNLKMRGHFWVGDELFCEKHAR [Y50F] | -0.001 ± 0.15
HTCEKCSTSIANQAVRIQEGRYRHPGCYTCADCGLNLKMRGHFWVGDELVCEKHAR [Y50V] | 0.072 ± 0.086
HTCEKCSTSIANQAVRIQEGRYRHPGCYTCADCGLNLKMRGHFWVGDELICEKHAR [Y50I] | -0.194 ± 0.18
HTCEKCSTSIANQAVRIQEGRYRHPGCYTCADCGLNLKMRGHFWVGDELRCEKHAR [Y50R] | -0.008 ± 0.069
HTCEKCSTSIANQAVRIQEGRYRHPGCYTCADCGLNLKMRGHFWVGDELLCEKHAR [Y50L] | -0.039 ± 0.084
HTCEKCSTSIANQAVRIQEGRYRHPGCYTCADCGLNLKMRGHFWVGDELQCEKHAR [Y50Q] | -0.256 ± 0.069

Variant | abundance fitness
HTCEKCSTSIANQAVRIQEGRYRHPGCYTCADCGLNLKMRGHFWVGDELNCEKHAR [Y50N] | -0.239 ± 0.17
HTCEKCSTSIANQAVRIQEGRYRHPGCYTCADCGLNLKMRGHFWVGDELWCEKHAR [Y50W] | -0.161 ± 0.076
HTCEKCSTSIANQAVRIQEGRYRHPGCYTCADCGLNLKMRGHFWVGDELGCEKHAR [Y50G] | -0.501 ± 0.069
HTCEKCSTSIANQAVRIQEGRYRHPGCYTCADCGLNLKMRGHFWVGDELECEKHAR [Y50E] | -0.673 ± 0.18
HTCEKCSTSIANQAVRIQEGRYRHPGCYTCADCGLNLKMRGHFWVGDELDCEKHAR [Y50D] | -0.079 ± 0.29
HTCEKCSTSIANQAVRIQEGRYRHPGCYTCADCGLNLKMRGHFWVGDELTCEKHAR [Y50T] | -0.289 ± 0.098
HTCEKCSTSIANQAVRIQEGRYRHPGCYTCADCGLNLKMRGHFWVGDELKCEKHAR [Y50K] | 0.04 ± 0.078
HTCEKCSTSIANQAVRIQEGRYRHPGCYTCADCGLNLKMRGHFWVGDELHCEKHAR [Y50H] | -0.083 ± 0.2
HTCEKCSTSIANQAVRIQEGRYRHPGCYTCADCGLNLKMRGHFWVGDELMCEKHAR [Y50M] | 0.077 ± 0.093
HTCEKCSTSIANQAVRIQEGRYRHPGCYTCADCGLNLKMRGHFWVGDELYYEKHAR [C51Y] | -0.94 ± 0.3
HTCEKCSTSIANQAVRIQEGRYRHPGCYTCADCGLNLKMRGHFWVGDELYIEKHAR [C51I] | -0.523 ± 0.37
HTCEKCSTSIANQAVRIQEGRYRHPGCYTCADCGLNLKMRGHFWVGDELYSEKHAR [C51S] | -0.609 ± 0.12
HTCEKCSTSIANQAVRIQEGRYRHPGCYTCADCGLNLKMRGHFWVGDELYTEKHAR [C51T] | -1.16 ± 0.27
HTCEKCSTSIANQAVRIQEGRYRHPGCYTCADCGLNLKMRGHFWVGDELYPEKHAR [C51P] | -0.614 ± 0.14
HTCEKCSTSIANQAVRIQEGRYRHPGCYTCADCGLNLKMRGHFWVGDELYQEKHAR [C51Q] | -0.696 ± 0.35
HTCEKCSTSIANQAVRIQEGRYRHPGCYTCADCGLNLKMRGHFWVGDELYHEKHAR [C51H] | -0.827 ± 0.18
HTCEKCSTSIANQAVRIQEGRYRHPGCYTCADCGLNLKMRGHFWVGDELYREKHAR [C51R] | -0.969 ± 0.095
HTCEKCSTSIANQAVRIQEGRYRHPGCYTCADCGLNLKMRGHFWVGDELYWEKHAR [C51W] | -1.05 ± 0.15
HTCEKCSTSIANQAVRIQEGRYRHPGCYTCADCGLNLKMRGHFWVGDELYKEKHAR [C51K] | -0.839 ± 0.26
HTCEKCSTSIANQAVRIQEGRYRHPGCYTCADCGLNLKMRGHFWVGDELYDEKHAR [C51D] | -0.593 ± 0.27
HTCEKCSTSIANQAVRIQEGRYRHPGCYTCADCGLNLKMRGHFWVGDELYEEKHAR [C51E] | -0.219 ± 0.16
HTCEKCSTSIANQAVRIQEGRYRHPGCYTCADCGLNLKMRGHFWVGDELYAEKHAR [C51A] | -0.669 ± 0.16
HTCEKCSTSIANQAVRIQEGRYRHPGCYTCADCGLNLKMRGHFWVGDELYVEKHAR [C51V] | -1.17 ± 0.15
